Key:
[1] = system: DYT-TOR1A MEF EVs; assay: Quantitative LC-MS/MS proteomics of EVs from drug-treated DYT-TOR1A MEF cultures (ritonavir, salubrinal); assay type: cell-based, mouse; design: key to RTV Corrective Direction / RTV Corrective Direction, Grwd1 / RTV Corrective Direction, Srrm2 / RTV Corrective Direction, Rbm17 / RTV Corrective Direction, Dcaf8 / RTV Corrective Direction, Edil3 / RTV Corrective Direction, Timp3 / RTV Corrective Direction, Heatr3 / RTV Corrective Direction, Brd4 / RTV Corrective Direction, P3h4 / RTV Corrective Direction, Pacsin3 / RTV Corrective Direction, Naa50 / RTV Corrective Direction, Lpar6 / RTV Corrective Direction, Ndrg1 / RTV Corrective Direction, Kntc1 / RTV Corrective Direction, Cdk11b / RTV Corrective Direction, Sumo1 / RTV Corrective Direction, Lsm4 / RTV Corrective Direction, Hmga2 / RTV Corrective Direction, Cstf1 / RTV Corrective Direction, Tes / RTV Corrective Direction, Sbno1 / RTV Corrective Direction, Unc119b / RTV Corrective Direction, Cfdp1 / RTV Corrective Direction, Sec61b: YES = protein abundance effect opposite to DYT/WT; settings: EV protein abundance; for RTV Corrective Direction: DYT + RTV (ritonavir) vs DYT, direction compared with DYT/WT; for DYT + RTV/DYT Cohen's d: ritonavir (RTV)-treated DYT vs DYT
[2] = system: WT MEF EVs; assay: Quantitative LC-MS/MS proteomics of EVs from ISRIB-treated WT MEF cultures; assay type: cell-based, mouse; design: key to ISRIB and DYT Parallel Direction / ISRIB and DYT Parallel Direction, Ctdsp1 / ISRIB and DYT Parallel Direction, Pcdh19 / ISRIB and DYT Parallel Direction, Tspan7 / ISRIB and DYT Parallel Direction, Myo1e / ISRIB and DYT Parallel Direction, Plpp3 / ISRIB and DYT Parallel Direction, Sh3bp4 / ISRIB and DYT Parallel Direction, Dnajc7 / ISRIB and DYT Parallel Direction, Drg1 / ISRIB and DYT Parallel Direction, Maea: YES = protein abundance effect similar to DYT/WT; settings: EV protein abundance; for WT + ISRIB/WT Cohen's d: ISRIB-treated WT vs WT; for ISRIB and DYT Parallel Direction: WT + ISRIB vs WT, direction compared with DYT/WT

B1: Psmd1 (protein, UniProt Q3TXS7 1-953, looked up)
26S proteasome non-ATPase …: MITSAAGIISLLDEEEPQLKEFALHKLNAVVNDFWAEISESVDKIEVLYEDEGFRSRQFAALVASKVFYHLGAFEESLNYALGAGDLFNVNDNSEYVETIIAKCIDHYTKQCVENADLPEGEKKPIDQRLEGIVNKMFQRCLDDHKYKQAIGIALETRRLDVFEKTILESNDVPGMLAYSLKLCMSLMQNKQFRNKVLRVLVKIYMNLEKPDFINVCQCLIFLDDPQAVSDILEKLVKEDNLLMAYQICFDLYESASQQFLSSVIQNLRTVGTPIASVPGSTNTGTVPGSEKDSDPMETEEKTASAVAGKTPDASPEPKDQTLKMIKILSGEMAIELHLQFLIRNNNTDLMILKNTKDAVRNSVCHTATVIANSFMHCGTTSDQFLRDNLEWLARATNWAKFTATASLGVIHKGHEKEALQLMATYLPKDTSPGSAYQEGGGLYALGLIHANHGGDIIDYLLNQLKNASNDIVRHGGSLGLGLAAMGTARQDVYDLLKTNLYQDDAVTGEAAGLALGLVMLGSKNAQAIEDMVGYAQETQHEKILRGLAVGIALVMYGRMEEADALIESLCRDKDPILRRSGMYTVAMAYCGSGNNKAIRRLLHVAVSDVNDDVRRAAVESLGFILFRTPEQCPSVVSLLSESYNPHVRYGAAMALGICCAGTGNKEAINLLEPMTNDPVNYVRQGALIASALIMIQQTEITCPKVNQFRQLYSKVINDKHDDVMAKFGAILAQGILDAGGHNVTISLQSRTGHTHMPSVVGVLVFTQFWFWFPLSHFLSLAYTPTCVIGLNKDLKMPKVQYKSNCKPSTFAYPAPLEVPKEKEKEKVSTAVLSITAKAKKKEKEKEKKEEEKMEVDEAEKKEEKEKKKEPEPNFQLLDNPARVMPAQLKVLSMTETCRYQPFKPLSIGGIIILKDTSEDVEELVEPVAAHGPKIEEEEQEPEPPEPFEYIDD
B1 was tested, and the “RTV Corrective Direction” value [1] was “YES”, the “DYT + RTV/DYT Cohen's d” value [1] was 4.33 and the “WT + ISRIB/WT Cohen's d” value [2] was −0.65. The “ISRIB and DYT Parallel Direction” value [2] was “YES”.

B2: Add1 (protein, UniProt P35611 1-737, looked up)
Alpha-adducin: MNGDSRAAVVTSPPPTTAPHKERYFDRVDENNPEYLRERNMAPDLRQDFNMMEQKKRVSMILQSPAFCEELESMIQEQFKKGKNPTGLLALQQIADFMTTNVPNVYPAAPQGGMAALNMSLGMVTPVNDLRGSDSIAYDKGEKLLRCKLAAFYRLADLFGWSQLIYNHITTRVNSEQEHFLIVPFGLLYSEVTASSLVKINLQGDIVDRGSTNLGVNQAGFTLHSAIYAARPDVKCVVHIHTPAGAAVSAMKCGLLPISPEALSLGEVAYHDYHGILVDEEEKVLIQKNLGPKSKVLILRNHGLVSVGESVEEAFYYIHNLVVACEIQVRTLASAGGPDNLVLLNPEKYKAKSRSPGSPVGEGTGSPPKWQIGEQEFEALMRMLDNLGYRTGYPYRYPALREKSKKYSDVEVPASVTGYSFASDGDSGTCSPLRHSFQKQQREKTRWLNSGRGDEASEEGQNGSSPKSKTKWTKEDGHRTSTSAVPNLFVPLNTNPKEVQEMRNKIREQNLQDIKTAGPQSQVLCGVVMDRSLVQGELVTASKAIIEKEYQPHVIVSTTGPNPFTTLTDRELEEYRREVERKQKGSEENLDEAREQKEKSPPDQPAVPHPPPSTPIKLEEDLVPEPTTGDDSDAATFKPTLPDLSPDEPSEALGFPMLEKEEEAHRPPSPTEAPTEASPEPAPDPAPVAEEAAPSAVEEGAAADPGSDGSPGKSPSKKKKKFRTPSFLKKSKKKSDS
With B2 the “RTV Corrective Direction” value [1] was “YES”, the “DYT + RTV/DYT Cohen's d” value [1] was 4.30 and the “WT + ISRIB/WT Cohen's d” value [2] was 0.00. The “ISRIB and DYT Parallel Direction” value [2] was “YES”.

B3: Dbn1 (protein, UniProt Q16643 2-649, looked up)
Drebrin: AGVSFSGHRLELLAAYEEVIREESAADWALYTYEDGSDDLKLAASGEGGLQELSGHFENQKVMYGFCSVKDSQAALPKYVLINWVGEDVPDARKCACASHVAKVAEFFQGVDVIVNASSVEDIDAGAIGQRLSNGLARLSSPVLHRLRLREDENAEPVGTTYQKTDAAVEMKRINREQFWEQAKKEEELRKEEERKKALDERLRFEQERMEQERQEQEERERRYREREQQIEEHRRKQQTLEAEEAKRRLKEQSIFGDHRDEEEETHMKKSESEVEEAAAIIAQRPDNPREFFKQQERVASASAGSCDVPSPFNHRPGSHLDSHRRMAPTPIPTRSPSDSSTASTPVAEQIERALDEVTSSQPPPLPPPPPPAQETQEPSPILDSEETRAAAPQAWAGPMEEPPQAQAPPRGPGSPAEDLMFMESAEQAVLAAPVEPATADATEIHDAADTIETDTATADTTVANNVPPAATSLIDLWPGNGEGASTLQGEPRAPTPPSGTEVTLAEVPLLDEVAPEPLLPAGEGCATLLNFDELPEPPATFCDPEEVEGESLAAPQTPTLPSALEELEQEQEPEPHLLTNGETTQKEGTQASEGYFSQSQEEEFAQSEELCAKAPPPVFYNKPPEIDITCWDADPVPEEEEGFEGGD
B3 was tested, and the “RTV Corrective Direction” value [1] was “YES”, the “DYT + RTV/DYT Cohen's d” value [1] was 4.58 and the “WT + ISRIB/WT Cohen's d” value [2] was −3.18. For the same molecule, the “ISRIB and DYT Parallel Direction” value [2] was “YES”.

B4: Ddx5 (protein, UniProt Q61656 1-614, looked up)
Probable ATP-dependent RNA …: MSSYSSDRDRGRDRGFGAPRFGGSRTGPLSGKKFGNPGEKLVKKKWNLDELPKFEKNFYQEHPDLARRTAQEVDTYRRSKEITVRGHNCPKPVLNFYEANFPANVMDVIARQNFTEPTAIQAQGWPVALSGLDMVGVAQTGSGKTLSYLLPAIVHINHQPFLERGDGPICLVLAPTRELAQQVQQVAAEYCRACRLKSTCIYGGAPKGPQIRDLERGVEICIATPGRLIDFLECGKTNLRRTTYLVLDEADRMLDMGFEPQIRKIVDQIRPDRQTLMWSATWPKEVRQLAEDFLKDYIHINIGALELSANHNILQIVDVCHDVEKDEKLIRLMEEIMSEKENKTIVFVETKRRCDELTRKMRRDGWPAMGIHGDKSQQERDWVLNEFKHGKAPILIATDVASRGLDVEDVKFVINYDYPNSSEDYIHRIGRTARSTKTGTAYTFFTPNNIKQVSDLISVLREANQAINPKLLQLVEDRGSGRSRGRGGMKDDRRDRYSAGKRGGFNTFRDRENYDRGYSNLLKRDFGAKTQNGVYSAANYTNGSFGSNFVSAGIQTSFRTGNPTGTYQNGYDSTQQYGSNVANMHNGMNQQAYAYPLPQAAPMIGYPMPTGYSQ
With B4 the “RTV Corrective Direction” value [1] was “YES”, the “DYT + RTV/DYT Cohen's d” value [1] was 4.48 and the “WT + ISRIB/WT Cohen's d” value [2] was −0.92. For the same molecule, the “ISRIB and DYT Parallel Direction” value [2] was “YES”.

B5: Capg (protein, UniProt P24452 1-352, looked up)
Macrophage-capping protein: MYTPIPQSGSPFPASVQDPGLHIWRVEKLKPVPIARESHGIFFSGDSYLVLHNGPEEASHLHLWIGQQSSRDEQGACAVLAVHLNTLLGERPVQHREVQGNESDLFMSYFPRGLKYYREGGVESAFHKTTSGARGAAIRKLYQVKGKKNIRATERPLSWDSFNTGDCFILDLGQNIFAWCGGKSNILERNKARDLALAIRDSERQGKAQVEIITDGEEPAEMIQVLGPKPALKEGNPEEDITADQTRPNAQAAALYKVSDATGQMNLTKVADSSPFASELLIPDDCFVLDNGLCAQIYIWKGRKANEKERQAALQVADGFISRMRYSPNTQVEILPQGRESPIFKQFFKNWK
B5 was tested, and the “RTV Corrective Direction” value [1] was “YES”, the “DYT + RTV/DYT Cohen's d” value [1] was 3.57 and the “WT + ISRIB/WT Cohen's d” value [2] was −0.61. The “ISRIB and DYT Parallel Direction” value [2] was “YES”.

B6: Plekho2 (protein, UniProt Q8K124 1-495, looked up)
Pleckstrin homology …: MEEESIKEGSEKPRGARTADKAGWIKKSSGGLLGLWKDRYLLLCQAQLLVYENEDEQKCVETVELGSYEKCQDLRTLLKRKHHRFILLRSPGNKVSDIKFQAPSGEEKESWIKALNEGINRGKNKAFDEVKVDKTCALEHVTRNRVRGGQRRRPPTRIHLKEVASAASDGLSRLDLDVPDSGPPVFAPLSDISEDQPQEPPRALMPPVKPSPGPETSAVEDSKETPAGERALTPDSASSGANPESQEDAETPAKEDSDVKSLPNSTLSEKLKVSWENPSPEKPSAPESAQLSSSETPEATPRESKKPPAPPPKILSEKMKACMSGVDASGSSQSSEAPETTSPEPTQVSVNGMDDGPESALQAMGIPGPAPEDAAASPALPFSDLPSQFHPRSSSLGDLLRESPQHPRLPKEKLYRAQLEVKVASKQTEKLLNQVLGSEPPPVCAESLLSQAVEQLRQATQVLQEMRDLGELNQETPGLVQKRKELVTLYRRSAP
In the case of B6, the “RTV Corrective Direction” value [1] is reported as “YES”, the “DYT + RTV/DYT Cohen's d” value [1] is reported as −5.03 and the “WT + ISRIB/WT Cohen's d” value [2] is reported as 0.14. For the same molecule, the “ISRIB and DYT Parallel Direction” value [2] was “YES”.
